Reference: patent US20180009892A1 (EUREKA THERAPEUTICS, published 2018)

B1: P601-56 (scFv, V domains shown)
VH: QLQLQESGPGLVKPSETLSLTCTVSGGSISSSSYYWGWIRQPPGKGLEWIGSIYYSGSTYYNPSLKSRVTISVDTSKNQFSLKLGSVTAADTAVYYCARHDGTDAFDIWGQGTTVTVSS
VL: QSVLTQPASVSGSPGQSITISCTGTSSDFGDYDYVSWYQQHPGKAPKLMIYDVSDRPSGVSNRFSGSKSGNTASLTISGLQAEDEADYFCSSLTTSSTLVFGGGTKLTVL
B2: P601-51 (scFv, V domains shown)
VH: not shown
VL: QSALTQPASVSGSPGQSITISCTGTSSDFGDYDYVSWYQQHPGKAPKLMIYDVSDRPSGVSNRFSGSKSGNTASLTISGLQAEDEADYFCSSFTTSSTLVFGGGTKLTVLG
B3: Antibody 601-14 (antibody, V domains shown)
VH: QVQLVQSGAEVKKPGESLKISCKDSGYSFTNYWLGWVRQMPGKGLEWMGIIYPGDSDTRYSPSFRGQVTISADKSISTAYLQWSSLKASDTAMYYCARLNLATHTAFDIWGQGTTVTVSS
VL: QSVLTQPASVSGSPGQSITISCTGTSSDVGGYNYVSWYQQHPGKAPKLMIYDVSNRPSGVSNRFSGSKSGNTASLTISGLQAEDEADYYCSSYTSSSTLWVFGGGTKLTVLG
B4: P601-37 (scFv, V domains shown)
VH: EVQLVQSGAEVKKPGASVKVSCKASGYTFNNYGFSWVRQAPGQGLEWMGWISVYNGNTNYAQKLQGRVTMTTDTSTSTAYMELRSLRSDDTAVYYCARDYYSDSSGYWDDAFDIWGQGTMVTVSS
VL: AIRMTQSPSSLSASVGDRVTITCQASQDISNYLNWYQQKPGKAPKLLIYAASSLQSGVPSRFSGSGSGTDFTLTISSLQPEDFATYYCQQSYSTPFTFGPGTKVDIK

Columns and labels:
human ROR2-ECD = biological target: T1, human ROR2-ECD (human, UniProt Q01974 34-403); test: phage antibody protein ELISA
T1 construct: extracellular domain; also called hROR2
Experimental: (§1) Binding specificities of the 45 phage antibodies were determined by protein ELISA against human ROR1-ECD, human ROR2-ECD and mouse ROR1-ECD (FIG. 12).

mouse ROR1-ECD = biological target: T2, mouse ROR1-ECD (mouse, UniProt Q9Z139 30-406); test: phage antibody protein ELISA
T2 construct: extracellular domain; also called mROR1
Experimental: as §1

[1] = biological target: T3, human ROR1 extracellular domain (ECD) protein (human, UniProt Q01973 30-406); test: competitive phage ELISA: soluble ROR1 against ROR1-coated plate
T3 construct: also called hROR1-ECD; human ROR1-ECD
Experimental: Purified phage antibodies were first diluted serially in PBST buffer, and tested for binding to a ROR1-coated plate. The dilution that gave 50-80% saturating signal was used in the solution binding assay in which phage were first incubated with increasing concentration of ROR1 for one to two hours, and then transferred to a ROR1-coated plate for 10-15 minutes to capture the unbound phage.

[2] = biological target: T4, ROR1 extracellular domain Fc-fusion, dimer (human, UniProt Q01973 30-406); test: SPR, immobilised ROR1 dimer, antibody injected, 1:1 model; apparent affinity
T4 construct: also called ROR1 dimer; hROR1 dimeric ECD-Fc fusion protein; not shown: Fc part
Experimental: (§2) The binding affinities of ROR1 extracellular domain dimer and monomer for anti-ROR1 antibodies were determined by surface plasmon resonance (SPR). ROR1 extracellular domain Fc-fusion, “dimer,” and ROR1 extracellular domain Fc fusion:Fc heterodimer, “monomer,” are the dimer and monomeric forms of ROR1 used for affinity analysis, respectively. Briefly, ROR1 dimer and monomer were directly immobilized to a CM4 chip using an amine coupling kit and 100 mM ethylenediamine in 100 mM Sodium Borate buffer, pH 8.0 as the blocking reagent. Approximately 100-150 RU of ROR1 dimer and monomer were immobilized on separate flow cells and an un-derivatized flow cell was used as a reference control. […] Dissociation was followed for 180 seconds. The association constant, dissociation constant, and affinity of each anti-ROR1 antibody was calculated using the Biacore T200 Evaluation Software 1:1 binding model.
(§3) Sensorgrams were normalized to 100 RU using the “binding stability point” at the end of the association phase but before the dissociation phase.

[3] = biological target: T4, ROR1 extracellular domain Fc-fusion, …; test: SPR, immobilised ROR1 dimer, antibody injected, 1:1 model; apparent affinity; second entry of 601-14
Experimental: as §2, §3

[4] = biological target: T4, ROR1 extracellular domain Fc-fusion, …; test: SPR, immobilised ROR1 dimer, antibody injected, 1:1 model; second entry of 601-14
Experimental: as §2, §3

[5] = biological target: T5, ROR1 extracellular domain Fc fusion:Fc heterodimer, monomer (human); test: SPR, immobilised ROR1 monomer, antibody injected, 1:1 model; second entry of 601-14
T5 construct: Heterodimer of one ROR1 ECD-Fc chain and one Fc chain; also called ROR1 monomer; hROR1 monomeric ECD-Fc fusion protein; not shown: Fc part; Fc alone
Experimental: as §2, §3

[6] = biological target: T5, ROR1 extracellular domain Fc fusion:Fc …; test: SPR, immobilised ROR1 monomer, antibody injected, 1:1 model
Experimental: as §2, §3

[7] = biological target: T4, ROR1 extracellular domain Fc-fusion, …; test: SPR, immobilised ROR1 dimer, antibody injected, 1:1 model
Experimental: as §2, §3

T2 sequence (Q9Z139 30-406): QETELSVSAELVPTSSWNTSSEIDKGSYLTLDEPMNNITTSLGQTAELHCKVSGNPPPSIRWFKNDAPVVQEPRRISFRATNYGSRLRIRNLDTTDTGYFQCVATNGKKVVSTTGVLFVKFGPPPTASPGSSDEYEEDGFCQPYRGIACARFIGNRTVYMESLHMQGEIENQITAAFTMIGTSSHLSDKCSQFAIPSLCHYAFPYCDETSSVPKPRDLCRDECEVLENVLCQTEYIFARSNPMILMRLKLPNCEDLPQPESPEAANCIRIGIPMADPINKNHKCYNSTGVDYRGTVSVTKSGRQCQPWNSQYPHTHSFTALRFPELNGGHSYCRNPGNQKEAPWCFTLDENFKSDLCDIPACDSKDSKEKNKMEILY
T3 sequence (Q01973 30-406 limits assumed): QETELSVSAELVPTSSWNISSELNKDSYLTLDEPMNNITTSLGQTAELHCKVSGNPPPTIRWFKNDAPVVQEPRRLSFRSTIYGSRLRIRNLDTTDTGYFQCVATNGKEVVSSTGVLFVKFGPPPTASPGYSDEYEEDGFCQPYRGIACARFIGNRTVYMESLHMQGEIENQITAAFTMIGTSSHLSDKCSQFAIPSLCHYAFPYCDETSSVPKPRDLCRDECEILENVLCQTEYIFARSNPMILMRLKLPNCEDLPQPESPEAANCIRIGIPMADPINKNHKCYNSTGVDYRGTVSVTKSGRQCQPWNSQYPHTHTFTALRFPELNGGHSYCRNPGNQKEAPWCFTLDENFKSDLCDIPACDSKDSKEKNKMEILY
T4 sequence (Q01973 30-406): as the sequence (Q01973 30-406 limits assumed) above
T5 sequence (Q01973 30-406, one chain of several): as the sequence (Q01973 30-406 limits assumed) above
T1 sequence (Q01974 34-403): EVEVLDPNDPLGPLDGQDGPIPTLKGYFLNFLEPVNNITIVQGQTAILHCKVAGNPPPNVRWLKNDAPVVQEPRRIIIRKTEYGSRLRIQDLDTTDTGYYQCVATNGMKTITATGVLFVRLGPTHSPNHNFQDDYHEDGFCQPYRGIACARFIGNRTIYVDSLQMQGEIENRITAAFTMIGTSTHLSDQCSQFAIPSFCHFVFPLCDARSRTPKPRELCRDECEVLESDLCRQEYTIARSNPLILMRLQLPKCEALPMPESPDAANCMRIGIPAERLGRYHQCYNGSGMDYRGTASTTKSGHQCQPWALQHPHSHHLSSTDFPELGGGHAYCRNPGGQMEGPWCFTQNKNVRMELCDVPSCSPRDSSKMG

Binder	binding result (human ROR2-ECD)	binding result (mouse ROR1-ECD)	IC50 [1]	Kd [2]	Kd [3]	koff [4]	kon [4]	Kd [5]	koff [5]	kon [5]	Kd [6]	koff [6]	kon [6]	koff [7]	kon [7]
B1	no binding	no binding	1.85 nM												
B2	no binding	no binding	0.62 nM												
B3				0.2 nM	0.6 nM	0.0015 s⁻¹	2.4e+06 M⁻¹ s⁻¹	0.8 nM	0.0021 s⁻¹	2.4e+06 M⁻¹ s⁻¹	0.4 nM	0.0013 s⁻¹	3.2e+06 M⁻¹ s⁻¹	0.00066 s⁻¹	2.7e+06 M⁻¹ s⁻¹
B4	no binding	binds	27.9 nM												
